First the molecules themselves.
B1: ActRIIB(20-134)-hFc (Fc fusion)
chain: GRGEAETRECIYYNANWELERTNQSGLERCEGEQDKRLHCYASWRNSSGTIELVKKGCWLDDFNCYDRQECVATEENPQVYFCCCEGNFCNERFTHLPEAGGPEVTYEPPPTAPTGGGTHTCPPCPAPELLGGPSVFLFPPKPKDTLMISRTPEVTCVVVDVSHEDPEVKFNWYVDGVEVHNAKTKPREEQYNSTYRVVSVLTVLHQDWLNGKEYKCKVSNKALPVPIEKTISKAKGQPREPQVYTLPPSREEMTKNQVSLTCLVKGFYPSDIAVEWESNGQPENNYKTTPPVLDSDGSFFLYSKLTVDKSRWQQGNVFSCSVMHEALHNHYTQKSLSLSPGK
B2: ActRIIb-hFc (R64, 20-131) (Fc fusion)
chain: GRGEAETRECIYYNANWELERTNQSGLERCEGEQDKRLHCYASWRNSSGTIELVKKGCWLDDFNCYDRQECVATEENPQVYFCCCEGNFCNERFTHLPEAGGPEVTYEPPPTGGGTHTCPPCPAPELLGGPSVFLFPPKPKDTLMISRTPEVTCVVVDVSHEDPEVKFNWYVDGVEVHNAKTKPREEQYNSTYRVVSVLTVLHQDWLNGKEYKCKVSNKALPVPIEKTISKAKGQPREPQVYTLPPSREEMTKNQVSLTCLVKGFYPSDIAVEWESNGQPENNYKTTPPVLDSDGSFFLYSKLTVDKSRWQQGNVFSCSVMHEALHNHYTQKSLSLSPGK
B3: ActRIIb-hFc (R64, 20-128) (Fc fusion)
chain: GRGEAETRECIYYNANWELERTNQSGLERCEGEQDKRLHCYASWRNSSGTIELVKKGCWLDDFNCYDRQECVATEENPQVYFCCCEGNFCNERFTHLPEAGGPEVTYEPGGGTHTCPPCPAPELLGGPSVFLFPPKPKDTLMISRTPEVTCVVVDVSHEDPEVKFNWYVDGVEVHNAKTKPREEQYNSTYRVVSVLTVLHQDWLNGKEYKCKVSNKALPVPIEKTISKAKGQPREPQVYTLPPSREEMTKNQVSLTCLVKGFYPSDIAVEWESNGQPENNYKTTPPVLDSDGSFFLYSKLTVDKSRWQQGNVFSCSVMHEALHNHYTQKSLSLSPGK
B4: ActRIIb-hFc (R64, 20-132) (Fc fusion)
chain: GRGEAETRECIYYNANWELERTNQSGLERCEGEQDKRLHCYASWRNSSGTIELVKKGCWLDDFNCYDRQECVATEENPQVYFCCCEGNFCNERFTHLPEAGGPEVTYEPPPTAGGGTHTCPPCPAPELLGGPSVFLFPPKPKDTLMISRTPEVTCVVVDVSHEDPEVKFNWYVDGVEVHNAKTKPREEQYNSTYRVVSVLTVLHQDWLNGKEYKCKVSNKALPVPIEKTISKAKGQPREPQVYTLPPSREEMTKNQVSLTCLVKGFYPSDIAVEWESNGQPENNYKTTPPVLDSDGSFFLYSKLTVDKSRWQQGNVFSCSVMHEALHNHYTQKSLSLSPGK
B5: ActRIIb-hFc (R64, 22-131) (Fc fusion)
chain: GEAETRECIYYNANWELERTNQSGLERCEGEQDKRLHCYASWRNSSGTIELVKKGCWLDDFNCYDRQECVATEENPQVYFCCCEGNFCNERFTHLPEAGGPEVTYEPPPTGGGTHTCPPCPAPELLGGPSVFLFPPKPKDTLMISRTPEVTCVVVDVSHEDPEVKFNWYVDGVEVHNAKTKPREEQYNSTYRVVSVLTVLHQDWLNGKEYKCKVSNKALPVPIEKTISKAKGQPREPQVYTLPPSREEMTKNQVSLTCLVKGFYPSDIAVEWESNGQPENNYKTTPPVLDSDGSFFLYSKLTVDKSRWQQGNVFSCSVMHEALHNHYTQKSLSLSPGK
B6: ActRIIb-hFc (R64, 21-131) (Fc fusion)
chain: RGEAETRECIYYNANWELERTNQSGLERCEGEQDKRLHCYASWRNSSGTIELVKKGCWLDDFNCYDRQECVATEENPQVYFCCCEGNFCNERFTHLPEAGGPEVTYEPPPTGGGTHTCPPCPAPELLGGPSVFLFPPKPKDTLMISRTPEVTCVVVDVSHEDPEVKFNWYVDGVEVHNAKTKPREEQYNSTYRVVSVLTVLHQDWLNGKEYKCKVSNKALPVPIEKTISKAKGQPREPQVYTLPPSREEMTKNQVSLTCLVKGFYPSDIAVEWESNGQPENNYKTTPPVLDSDGSFFLYSKLTVDKSRWQQGNVFSCSVMHEALHNHYTQKSLSLSPGK
B7: ActRIIb-hFc (R64, 24-131) (Fc fusion)
chain: AETRECIYYNANWELERTNQSGLERCEGEQDKRLHCYASWRNSSGTIELVKKGCWLDDFNCYDRQECVATEENPQVYFCCCEGNFCNERFTHLPEAGGPEVTYEPPPTGGGTHTCPPCPAPELLGGPSVFLFPPKPKDTLMISRTPEVTCVVVDVSHEDPEVKFNWYVDGVEVHNAKTKPREEQYNSTYRVVSVLTVLHQDWLNGKEYKCKVSNKALPVPIEKTISKAKGQPREPQVYTLPPSREEMTKNQVSLTCLVKGFYPSDIAVEWESNGQPENNYKTTPPVLDSDGSFFLYSKLTVDKSRWQQGNVFSCSVMHEALHNHYTQKSLSLSPGK
B8: ActRIIb-hFc (R64, 23-131) (Fc fusion)
chain: EAETRECIYYNANWELERTNQSGLERCEGEQDKRLHCYASWRNSSGTIELVKKGCWLDDFNCYDRQECVATEENPQVYFCCCEGNFCNERFTHLPEAGGPEVTYEPPPTGGGTHTCPPCPAPELLGGPSVFLFPPKPKDTLMISRTPEVTCVVVDVSHEDPEVKFNWYVDGVEVHNAKTKPREEQYNSTYRVVSVLTVLHQDWLNGKEYKCKVSNKALPVPIEKTISKAKGQPREPQVYTLPPSREEMTKNQVSLTCLVKGFYPSDIAVEWESNGQPENNYKTTPPVLDSDGSFFLYSKLTVDKSRWQQGNVFSCSVMHEALHNHYTQKSLSLSPGK

The target in one test is T1, Activin A (UniProt P08476 311-426).
T1 sequence (looked up): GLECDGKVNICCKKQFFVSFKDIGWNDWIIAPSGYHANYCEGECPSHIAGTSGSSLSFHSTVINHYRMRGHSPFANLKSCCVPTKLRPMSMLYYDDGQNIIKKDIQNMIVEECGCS
Description: cell-based or functional assay.
Turning to B1, the “IC50 (ng/mL), reporter gene assay, conditioned media” value (“IC50 (ng/mL), reporter gene assay” below) stood at 2 ng/mL.

Turning to B2, the “IC50 (ng/mL), reporter gene assay” value is 44 ng/mL.

Take B3: the “IC50 (ng/mL), reporter gene assay” value was found to be 158 ng/mL.

On to B4, for which the “IC50 (ng/mL), reporter gene assay” value came out at 32 ng/mL.

Another test deals with T2, GDF11 (UniProt O95390 299-407).
T2 sequence (looked up): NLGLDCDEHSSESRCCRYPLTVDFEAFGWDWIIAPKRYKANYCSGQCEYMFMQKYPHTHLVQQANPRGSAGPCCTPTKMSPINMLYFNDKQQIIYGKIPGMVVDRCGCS
Description: cell-based or functional assay.
As for B1, the “IC50 (ng/mL), reporter gene assay” value was determined as 45 ng/mL.

In the case of B2, the “IC50 (ng/mL), reporter gene assay” value was found to be 120 ng/mL.

Regarding B3, the “IC50 (ng/mL), reporter gene assay” value turned out to be 130 ng/mL.

Consider B4, for which the “IC50 (ng/mL), reporter gene assay” value is 87 ng/mL.

A further test addresses T1, Activin A. The test is described as follows: cell-based or functional assay. This is another data set of the same source.
For the molecule B5, the “IC50 (ng/mL), reporter gene assay” value is 100 ng/mL.

As for B6, the “IC50 (ng/mL), reporter gene assay” value worked out at 325 ng/mL.

For the molecule B7, the “IC50 (ng/mL), reporter gene assay” value amounted to 105 ng/mL.

Turning to B8, the “IC50 (ng/mL), reporter gene assay” value came out at 43 ng/mL.

In the case of B2, the “IC50 (ng/mL), reporter gene assay” value amounted to 201 ng/mL.

Another test concerns the target T2, GDF11. The test is described as follows: cell-based or functional assay. The source holds these as a separate data set.
For B5, the “IC50 (ng/mL), reporter gene assay” value amounted to 71 ng/mL.

Regarding B6, the “IC50 (ng/mL), reporter gene assay” value turned out to be 121 ng/mL.

On to B7, for which the “IC50 (ng/mL), reporter gene assay” value worked out at 69 ng/mL.

As to B8, the “IC50 (ng/mL), reporter gene assay” value was 60 ng/mL.

B2: the “IC50 (ng/mL), reporter gene assay” value turned out to be 183 ng/mL.
